Laboratory results: patent US12281162 (LANOVA MEDICINES DEVELOPMENT, dated 2025)
Positions count from the first letter of the chain named.

B1: 6-H1L1 (antibody, V domains shown)
VH: QVQLVQSGAEVKKPGASVKVSCKASGYTFTTYTMHWVRQAPGQGLEWMGYINPSSGYTNYNQKFKDRVTMTRDTSTSTVYMELSSLRSEDTAVYYCSRLRSRGYFDYWGQGTLVTVSS
VL: DIQLTQSPSFLSASVGDRVTITCKASQNVGTAVVWYQQKPGKAPKLLIYSASNRYTGVPSRFSGSGSGTEFTLTISSLQPEDFATYYCQQYSSYPYTFGQGTKLEIK
notes: humanized 6G10D9, VH v1 x VL v1
B2: 6-H4L3 (antibody, V domains shown)
VH: B1 VH with K12A, V20M, R38K, M48L, M70L, R72A, S97A, R98S, V114L
VL: B1 VL with L4M, A13T, A43S, L78M, Y86F, Y87F
notes: humanized 6G10D9, VH v4 x VL v3
B3: 6-H3L1 (antibody, V domains shown)
VH: B1 VH with K12A, R38K, M48L, R72A, S97A, R98S
VL: B1 VL
notes: humanized 6G10D9, VH v3 x VL v1
B4: 6-H4L1 (antibody, V domains shown)
VH: B1 VH with K12A, V20M, R38K, M48L, M70L, R72A, S97A, R98S, V114L
VL: B1 VL
notes: humanized 6G10D9, VH v4 x VL v1
B5: 6-H3L2 (antibody, V domains shown)
VH: B1 VH with K12A, R38K, M48L, R72A, S97A, R98S
VL: B1 VL with A13T, A43S, Y86F
notes: humanized 6G10D9, VH v3 x VL v2
B6: 6-H4L2 (antibody, V domains shown)
VH: B1 VH with K12A, V20M, R38K, M48L, M70L, R72A, S97A, R98S, V114L
VL: B1 VL with A13T, A43S, Y86F
notes: humanized 6G10D9, VH v4 x VL v2
B7: 6-H3L3 (antibody, V domains shown)
VH: B1 VH with K12A, R38K, M48L, R72A, S97A, R98S
VL: B1 VL with L4M, A13T, A43S, L78M, Y86F, Y87F
notes: humanized 6G10D9, VH v3 x VL v3
B8: 6G10D9-XI (antibody, V domains shown)
VH: QVQLQQSGAELARPGASVKMSCKASGYTFTTYTMHWVKQRPGQGLEWLGYINPSSGYTNYNQKFKDKATLTAGKSSSTAYMQLSSLTSEDSAVYYCASLRSRGYFDYWGQGTTLTVSS
VL: DIVMTQSQTFMSTSVGDRVRITCKASQNVGTAVVWYQQKTGQSPRLLIYSASNRYTGVPDRFTGSGSGTDFTLTISNMQSEDLADFFCQQYSSYPYTFGGGTKLEIK
notes: also called 6G10D9 (chimeric); 6G1009-X1
B9: 37B9C4-XI (antibody, V domains shown)
VH: EVNLEESGGGLVQPGGSMKLSCVASGFTFSDYWMNWVRQSPEKGLEWVAEIRLKSNNYATHYAESVKGRFTISRDDSKSSVYLQMNNLRAEDTGIYYCTRPLLWFRRYYAMDYWGQGTSVTVSS
VL: DIQMTQTTSSLSASLGDRITISCSASQGISNYLNWYQQKPDGTVKLLIYYTSSLHSGVPSRFSGSGSGTDYSLTISNLEPADIATYYCQQYSKLPFTFGSGTKLEIK
notes: also called 37B9C4 (chimeric); 37-XI
B10: 58F9G10-XI (antibody, V domains shown)
VH: EVQLQQSGPELVKTGASVKISCKASGYSFTGYYIHWVKQSHGKSLEWIGYISCYNGATSFNQKFKGKATFTVDTSSSTAYMQFNSLTSEDSAVYYCARTELRGPWFAYWGQGTLVTVSA
VL: QTVLTQSPAIMSASPGEKVTMTCSASSSVSYMNWYQQKSGTSPKRWIYDTSKLASGVPARFSGSGSGTSYSLTISSMEAEDAATYYCQQWSNNPLTFGAGTKLELK
notes: also called 58F9G10 (chimeric); 58-XI
B11: 34-XI (antibody, V domains shown)
VH: EVHLVESGGDLVKPGGSLKLSCAASGFTFSSYGMSWVRQTPDKRLEWVATISSGGSYTYYPDSVKGRFTISRDNAKNTLNLQMSSLKSEDTAMYYCARQGGDAMDYWGQGTSVTVSS
VL: DIVLTQSPATLSVTPGDSVSLSCRASQSINNNLHWYQQKSHESPRLLIKYASQSISGIPSRFSGSGSGTDFTLSINSVETEDFGMYFCQQSNSRLTFGAGTKLELK
notes: also called 34D3H1 (chimeric)
B12: 21C3C11B3 (chimeric) (antibody, V domains shown)
VH: QVQLQQSGAELVRPGTSVKVSCKASGYAFINYLIEWIKQRPGQGLEWIGMINPGSGGTNYNEKFKDKATLTADKSSSTAYMQLSSLTSDDSAVYFCARNWDVWGQGTTLTVSS
VL: DVVMTQSPLSLPVSLGDQASVSCRSSQSLVHSTGNTYLHWYLQKPGQSPKLLIYKVSNRFSGVPDRFSGSGSGTDFTLKISRVEAEDLGVYFCSQSTHVPWTFGGGTKLEIK
B13: 40A5B2 (chimeric) (antibody, V domains shown)
VH: EVQLQQSGPELVKPGASVKMSCKASGYTFTRNIMHWVKQKPGQGLEWIGYINPYNAGSKYNEKFKGKATLTSDISSSTAYMELSSLTSEDSAVYYCAREEVYYRYGAWFAYWGHGTLVTVSA
VL: DIVLTQSPASLAVSLGQRATISCRASQSVSTSSYSYMHWYQQKPGQPPKLLIKYASNLESGVPARFSGSGSGTDFTLNIHPVEEEDTATYYCQHSWEIPRTFGGGTKLEIK
B14: 29B2C10 (chimeric) (antibody, V domains shown)
VH: EVQLQQSGPELVKPGASMKLSCKASGYSFTGYTMHWVKQSHGENLEWIGLINPYNGGTNYNQKFKGKATLTVDKSSSTAYMELLSLTSEDSAVYYCSRWGLRRAMDYWGQGTSVTVSS
VL: DIVMTQSQKFMSTSVGDRVSVTCKASQNVGSNVAWYQQKPGQSPKALIYSASYRYSGVPDRFTGNGSGTDFTLTISNVQSEDLAEYFCQQYYNSPWTFGGGTKLEIK

Target: T1, human G-protein-coupled receptor family C group 5 member D (GPRC5D) (human, UniProt Q9NZD1 1-345)
T1 construct: whole, on cells; also called human GPRC5D protein
Experiment: FACS, CHO-K1/GPRC5D

T1 sequence (Q9NZD1 whole entry): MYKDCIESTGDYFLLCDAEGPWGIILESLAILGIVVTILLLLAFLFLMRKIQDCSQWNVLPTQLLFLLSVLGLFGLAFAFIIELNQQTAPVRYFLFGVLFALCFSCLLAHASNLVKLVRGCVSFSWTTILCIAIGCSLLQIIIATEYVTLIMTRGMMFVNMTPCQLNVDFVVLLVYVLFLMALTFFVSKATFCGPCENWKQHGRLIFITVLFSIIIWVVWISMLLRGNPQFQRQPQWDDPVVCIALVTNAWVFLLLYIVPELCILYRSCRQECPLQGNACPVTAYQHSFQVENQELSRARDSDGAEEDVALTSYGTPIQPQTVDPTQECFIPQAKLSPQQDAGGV

Bottom	LogEC50	Span	Top	Binder
193	~3.1	~6200	~6400	B1
2340	0.905	124000	126000	B2
-205	2.35	74500	74300	B3
61.5	1.65	50200	50300	B4
68.9	2.24	47400	47500	B5
9.56	1.98	39400	39400	B6
3990	0.955	115000	119000	B7
6860	0.299	115000	122000	B8

Target: T1, human G-protein-coupled receptor family …
Experiment: FACS, CHO-K1/GPRC5D
Remark: another data set of the same source

Bottom	LogEC50	Span	Top	Binder
11700	0.236	177000	188000	B9

Target: T1, human G-protein-coupled receptor family …
Experiment: FACS, CHO-K1/human GPRC5D

Bottom	LogEC50	Span	Top	Binder
52.2	0.556	107000	107000	B10
109	1.42	146000	146000	B2
172	1.41	134000	134000	B7
689	0.578	117000	118000	B11
524	0.472	104000	104000	B8
793	0.388	113000	113000	B9

Target: T1, human G-protein-coupled receptor family …
Experiment: FACS, CHO-K1/GPRC5D
Remark: another data set of the same source

Bottom	LogEC50	Span	Top	Binder
16500	0.495	176000	192000	B11

Target: T1, human G-protein-coupled receptor family …
Experiment: FACS, CHO-K1/human GPRC5D, chimeric antibody
Experimental: CHO—K1 cells stably expressed human GPRC5D, were harvested from flasks. 100 µl of 1×10⁶ cells/ml of cells were incubated with primary chimeric antibodies in 3-fold serial dilutions starting from 300 nM to 0.001 nM for 30 minutes on ice. After being washed with 200 µl of FACS buffer twice, cells were incubated with secondary antibody for 30 minutes on ice. Cells were washed with 200 µl of FACS buffer twice and transferred to BD Falcon 5 ml tube and analyzed by FACS.

Bottom	LogEC50	Span	Top	Binder
-522	0.36	415000	415000	B10
5770	0.229	398000	404000	B12
3450	0.521	504000	508000	B11
6890	0.101	451000	458000	B8
2080	0.249	403000	405000	B9
1490	0.344	439000	440000	B13
4330	0.342	426000	430000	B14

Target: T1, human G-protein-coupled receptor family …
Experiment: FACS, NCI-H929 cells

Bottom	LogEC50	Span	Top	Binder
261	0.16	14500	14700	B10
80	1.61	28900	29000	B2
130	1.47	21700	21900	B7
181	0.759	18000	18100	B11
269	0.0515	13500	13800	B8
338	-0.0562	13500	13800	B9

Target: T1, human G-protein-coupled receptor family …
Experiment: FACS, CHO-K1/GPRC5D
Remark: another data set of the same source

Bottom	LogEC50	Span	Top	Binder
6700	0.292	121000	127000	B10
